# Data as given in patent US20210292392A1 (TSB THERAPEUTICS BEIJING, published 2021).
# Like-named read-outs stand apart in the source and are kept apart here.
# B1: P2B-1E4 (antibody, human IgG1, lambda, V domains shown)
# VH: QITLKESGPTLVKPTQTLTLTCTFSGFSLSTSGVGVGWIRQPPGKALEWLALIYWDDDKRYSPSLKSRLTITKDTSKNQVVLTMTNMDPVDTATYYCAHQIVATIIDYWGQGTLVTVSS
# VL: QSALTQPASVSGSPGQSITISCTGTSSDVGGYNYVSWYQQHPGKAPKLMIYDVSKRPSGVSNRFSGSKSGNTASLTISGLQAEDEADYYCSSYTSSSVVFGGGTKLTVLG
# B2: P4B-1F4 (antibody, human IgG1, kappa, V domains shown)
# VH: QVQLVESGGGVVQPGRSLRLSCAASGFTFSSYGMHWVRQAPGKGLEWVAVISYDGSNKYYADSVKGRFTISRDNSKNTLYLQINSLRAEDTAVYYCAKGPRYSSSWYISLYYYYGMDVWGQGTTVTVSS
# VL: not shown
# B3: P2A-1A8 (antibody, V domains shown)
# VH: EVQLVESGGDLVQPGRSLRLSCAASGFAFDDYAMHWVRQAPGKGLEWVSGSTWNSGTIAYADSVKGRFTISRDNAKKSLYLQMNSLRTEDTALYYCAKLGGYSDYDYPRPGDHYYGLDVWGQGTTVTVSS
# VL: QSALTQPASVSGSPGQSITISCTGTSSDVGSYNLVSWYQQHPGKVPKLLIYDVNKRPSGISNRFSGSKSGNTASLTISGLQAEDEADYYCRSYTDSNTYVFGTGTKVTVLG
# B4: P2A-1B3 (antibody, V domains shown)
# VH: EVQLVESGGGLVQPGGSLRLSCVASGFSFNRYSMNWLRQTPRKGLEWLSYISASGNTIYYADSVRGRFTTSRDNAKNTLYLQMNSLRDDDTAVYFCARPAMVREGTYNWFDPWGQGTLVTVSS
# VL: EIVLTQSPGTLSLSPGERATLSCRASQSVSNDYLAWYQQKPGQAPRLLIYYASSRATGIPDRFSGSGSGTDFTLTISRLEPGDSAVYYCQQYGDSPPITFGQGTRLEIKR
# B5: P2B-1D9 (antibody, human IgG1, lambda, V domains shown)
# VH: QITLKESGPTLVKPTQTLTLTCTFSGFSLSTSGVGVGWIRQPPGKALEWLALIYWDDDKYYSPSLKSRLTITKDTSKNQVVLTMTNMDPVDTATYYCAHTRILYYGSGSYYDYWGQGTLVTVSS
# VL: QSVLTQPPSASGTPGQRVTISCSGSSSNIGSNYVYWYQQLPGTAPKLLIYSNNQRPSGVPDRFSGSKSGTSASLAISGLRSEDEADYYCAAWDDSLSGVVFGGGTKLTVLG
# B6: P2B-2F6 (antibody, V domains shown)
# VH: QVQLQESGPGLVKPSETLSLTCTVSGYSISSGYYWGWIRQPPGKGLEWIGSIYHSGSTYYNPSLKTRVTISVDTSKNQFSLKLSSVTAADTAVYYCARAVVGIVVVPAAGRRAFDIWGQGTMVTVSS
# VL: QSALTQPPSASGSPGQSVTISCTGTSSDVGGYNYVSWYQQHPGKAPKLMIYEVSKRPSGVPDRFSGSKSGNTASLTVSGLQAEDEADYYCSSYAGSNNLVFGGGTKLTVLG
# B7: P2B-2F6 (antibody, V domains shown)
# VH: B6 VH
# VL: B6 VL
# B8: P2B-2F6 (antibody, V domains shown)
# VH: B6 VH
# VL: B6 VL
# B9: P2B-1G5 (antibody, human IgG1, lambda, V domains shown)
# VH: QVQLVQSGSELKKPGASVKVSCKASGYTFTTYVMNWVRQAPGQGLEWMGWINTNTGNPTYAQGFTGRFVFSLDTSVSTASLQISSLKAEDTAVYYCSCEITTLGGMDVWGQGTTVTVSS
# VL: SYVLTQPPSVSVAPGKTARITCGGNNIGSKSVHWYQQKPGQAPVLVIYYDSDRPSGIPERFSGSNSGNTATLTISGVEAGDEADYYCQVWDSISDHRVFGGGTKLTVLG
# B10: P2B-1A10 (antibody, human IgG1, kappa, V domains shown)
# VH: EVQLVESGGGLIQPGGSLRLSCAASGFTVSSNYMSWVRQAPGKGLEWVSVIYSGGSTYYADSVKGRFTISRDNSKNTLYLQMNSLRAEDTAVYYCAREGPKSITGTAFDIWGQGTIVTVSS
# VL: DIQMTQSPSSLSASVGDRVTITCQASQDISNYFNWYQQKPGKAPKLLIYDASNLETGVPSRFSGSGSGTDFTFTISSLQPEDIATYYCQQYDNLPMYTFGQGTKLEIKR
# Legend:
# [1] = biological target: T1, full length spike (S) protein of SARS-CoV-2 (SARS-CoV-2, UniProt P0DTC2 14-1273); test: cell-based or functional assay
# [2] = biological target: T1, full length spike (S) protein of …; test: cell-based or functional assay; remark: listed apart in the source
# [3] = biological target: spike protein on live SARS-CoV-2 (SARS-CoV-2, UniProt P0DTC2 14-1273); test: cell-based or functional assay
# [4] = biological target: T1, full length spike (S) protein of …; test: cell-based or functional assay; remark: listed apart in the source
# [5] = biological target: full length spike (S) protein of SARS-CoV-2 on pseudovirus (SARS-CoV-2, UniProt P0DTC2 14-1273); test: cell-based or functional assay
# [6] = biological target: full length S protein of SARS-CoV-2 (on pseudovirus) (SARS-CoV-2, UniProt P0DTC2 14-1273); test: cell-based or functional assay
# [7] = biological target: spike protein of live SARS-CoV-2 (SARS-CoV-2, UniProt P0DTC2 14-1273); test: cell-based or functional assay
# [8] = biological target: spike (S) protein of live SARS-CoV-2 (SARS-CoV-2, UniProt P0DTC2 14-1273); test: cell-based or functional assay
# [9] = biological target: T1, full length spike (S) protein of …; test: cell-based or functional assay; remark: listed apart in the source
# [10] = biological target: recombinant RBD of the spike protein of SARS-CoV-2 (residues Arg319-Phe541) (SARS-CoV-2, UniProt P0DTC2 319-541)
binder,measurement,setting,value
B1,"IC50, pseudovirus neutralization",[1],5.96 µg/mL
B2,"IC90, Pesudovirus neutralization",[2],14.5 µg/mL
B3,"IC50, live SARS-CoV-2 focus reduction neutralization test (FRNT)",[3],35.9 µg/mL
same,"IC50, pseudovirus neutralization",[4],7.68 µg/mL
same,Neutralizing activity (%) Mean at 0.0228624 µg/ml,[4],4.34%
same,Neutralizing activity (%) Mean at 0.0685871 µg/ml,[4],13.2%
same,Neutralizing activity (%) Mean at 0.2057613 µg/ml,[4],14.1%
same,Neutralizing activity (%) Mean at 0.6172839 µg/ml,[4],16.5%
same,Neutralizing activity (%) Mean at 1.851852 µg/ml,[4],26.7%
same,Neutralizing activity (%) Mean at 5.555555 µg/ml,[4],44.8%
same,Neutralizing activity (%) Mean at 16.66667 µg/ml,[4],67.8%
same,Neutralizing activity (%) Mean at 50 µg/ml,[4],88.2%
B4,Pseudovirus IC50,[5],16.8 µg/mL
same,Pseudovirus IC80,[5],> 50 µg/mL
B5,"IC50, pseudovirus neutralization",[1],3.12 µg/mL
B6,"IC50, live SARS-CoV-2 focus reduction neutralization test (FRNT)",[3],0.41 µg/mL
same,"IC50, pseudovirus neutralization",[4],0.05 µg/mL
same,Neutralizing activity (%) Mean at 0.0228624 µg/ml,[4],39.4%
same,Neutralizing activity (%) Mean at 0.0685871 µg/ml,[4],51.8%
same,Neutralizing activity (%) Mean at 0.2057613 µg/ml,[4],67.1%
same,Neutralizing activity (%) Mean at 0.6172839 µg/ml,[4],81.4%
same,Neutralizing activity (%) Mean at 1.851852 µg/ml,[4],89%
same,Neutralizing activity (%) Mean at 5.555555 µg/ml,[4],93.5%
same,Neutralizing activity (%) Mean at 16.66667 µg/ml,[4],95.4%
same,Neutralizing activity (%) Mean at 50 µg/ml,[4],97.4%
B7,Pseudovirus IC50,[6],0.05 µg/mL
same,Pseudovirus IC80,[6],0.607 µg/mL
same,Live virus IC50,[7],0.407 µg/mL
B8,Pseudovirus IC50,[5],0.05 µg/mL
same,Pseudovirus IC80,[5],0.607 µg/mL
same,Live virus IC50,[8],0.407 µg/mL
same,Live virus IC80,[8],2.43 µg/mL
B9,"IC50, pseudovirus neutralization",[9],0.11 µg/mL
same,Kd,[10],100 pM
same,kon,[10],1.38e+06 M⁻¹ s⁻¹
B10,"IC50, pseudovirus neutralization",[1],0.349 µg/mL
